Test: Thermostability and storage stability of purified gluconate dehydratase (remaining activity after standing)
Format: physicochemical, Achromobacter xylosoxidans strain ATCC 9220
Description: The gluconate dehydratase activity in the present invention produces 2-keto-3-deoxy-D-gluconic acid, using D-gluconic acid as the substrate. The activity can be determined as follows: A reaction mixture in an amount of 1 mL containing […] of a Tris buffer (pH 8.5), 40 μmol of sodium D-gluconate, 1 μmol of magnesium chloride, and the gluconate dehydratase is allowed to react at 37° C. for 10 minutes, and 200 μL of 1 M hydrochloric acid solution is added to the reaction mixture to stop the reaction; and then, the amount of the resulting 2-keto-3-deoxy-D-gluconic acid is determined by high-performance liquid chromatography (column: Shodex Asahipak NH2P-50 4E, produced by Showa Denko, column temperature: 40° C., mobile phase: 50 mM sodium dihydrogen phosphate solution, flow rate: 1 mL/min, detection at 210 nm). An amount of enzyme for catalyzing the production of 1 μmol of 2-keto-3-deoxy-D-gluconic acid for one minute is defined as 1 U. The amount of protein may be determined by a dye-binding method using a Bio-Rad protein assay kit.
Samples of the purified gluconate dehydratase solution prepared in Example 3, which was dissolved in the 30 mM Tris buffer (pH 8.5) containing 1 mM sodium D-gluconate and 1 mM magnesium chloride, […] Another sample was allowed to stand at 4° C. for 7 days and 30 days. […]

B1: Gluconate Dehydratase: heat-resistant gluconate dehydratase purified from Achromobacter xylosoxidans strain ATCC 9220, amino acid sequence SEQ ID NO:2 (protein)
chain: MTDTPRKLRSQKWFDDPAHADMTAIYVERYLNYGLTRQELQSGRPIIGIAQTGSDLAPCNRHHLALAERIKAGIRDAGGIPMEFPVHPLAEQGRRPTAALDRNLAYLGLVEILHGYPLDGVVLTTGCDKTTPACLMAAATVDIPAIVLSGGPMLDGWHDGQRVGSGTVIWHARNLMAAGKLDYEGFMTLATASSPSIGHCNTMGTALSMNSLAEALGMSLPTCASIPAPYRERGQMAYATGLRICDMVREDLRPSRILTREAFENAIVVASALGASSNCPPHLIAMARHAGIDLSLDDWQRLGEDVPLLVNCVPAGEHLGEGFHRAGGVPAVMHELLAAGRLHADCATVSGKTIGEIAAGAKTHDADVIRGCDAPLKHRAGFIVLSGNFFDSAVIKMSVVGEAFRRAYLSAPGDENAFEARAIVFEGPEDYHARIEDPALNIDEHCILVIRGAGTVGYPGSAEVVNMAPPSHLIKRGIDSLPCLGDGRQSGTSASPSILNMSPEAAVGGGLALLRTGDRIRVDLNQRSVIALVDEAELARRRQDPPYQPPPAQTPWQELYRQLVGQLSTGGCLEPSTLYLKVVETRGDPRHSH
modifications: Achromobacter xylosoxidans
buffer, 168 h
  Remaining activity (%): 100%
Storage at 0° C. in Tris buffer (pH 8.0 to 8.8), 1 mM sodium D-gluconate, 1 mM magnesium chloride (same conditions as the M250 report)
  Storage stability of the activity: maintain the activity stably for one month

Source: patent US7125704B2, “Gluconate dehydratase” (priority 2003, dated 2006)
